Among the data in publication PMC8996237 are stoichiometry N values, retold here.

Experiment [1] deals with hCMP-mRBD from a stable CHO suspension cell line (human | HIV-1 JR-FL | SARS-CoV-2) (UniProt P0DTC2). The experiment in a line: SDS-PAGE.
Experiment [2] deals with hCMP-mRBD from a stable HEK293 suspension cell line (human | HIV-1 JR-FL | SARS-CoV-2) (UniProt P0DTC2). In words: SDS-PAGE.

For the substance “hCMP-mRBD from a stable CHO suspension cell line (from UniProt P0DTC2 332-532)”, in experiment [1], the stoichiometry N turned out to be 3.

“hCMP-mRBD from a stable HEK293 suspension cell line (from UniProt P0DTC2 332-532)” returned a stoichiometry N in experiment [2] of 3.
